{"source": "patent US7147850", "key": {"[1]": {"target": "MUC-1 glycoprotein on untreated ZR-75-1 cells (glycosylated MUC-1) (human) (UniProt P15941)", "sequence (P15941 24-1255)": "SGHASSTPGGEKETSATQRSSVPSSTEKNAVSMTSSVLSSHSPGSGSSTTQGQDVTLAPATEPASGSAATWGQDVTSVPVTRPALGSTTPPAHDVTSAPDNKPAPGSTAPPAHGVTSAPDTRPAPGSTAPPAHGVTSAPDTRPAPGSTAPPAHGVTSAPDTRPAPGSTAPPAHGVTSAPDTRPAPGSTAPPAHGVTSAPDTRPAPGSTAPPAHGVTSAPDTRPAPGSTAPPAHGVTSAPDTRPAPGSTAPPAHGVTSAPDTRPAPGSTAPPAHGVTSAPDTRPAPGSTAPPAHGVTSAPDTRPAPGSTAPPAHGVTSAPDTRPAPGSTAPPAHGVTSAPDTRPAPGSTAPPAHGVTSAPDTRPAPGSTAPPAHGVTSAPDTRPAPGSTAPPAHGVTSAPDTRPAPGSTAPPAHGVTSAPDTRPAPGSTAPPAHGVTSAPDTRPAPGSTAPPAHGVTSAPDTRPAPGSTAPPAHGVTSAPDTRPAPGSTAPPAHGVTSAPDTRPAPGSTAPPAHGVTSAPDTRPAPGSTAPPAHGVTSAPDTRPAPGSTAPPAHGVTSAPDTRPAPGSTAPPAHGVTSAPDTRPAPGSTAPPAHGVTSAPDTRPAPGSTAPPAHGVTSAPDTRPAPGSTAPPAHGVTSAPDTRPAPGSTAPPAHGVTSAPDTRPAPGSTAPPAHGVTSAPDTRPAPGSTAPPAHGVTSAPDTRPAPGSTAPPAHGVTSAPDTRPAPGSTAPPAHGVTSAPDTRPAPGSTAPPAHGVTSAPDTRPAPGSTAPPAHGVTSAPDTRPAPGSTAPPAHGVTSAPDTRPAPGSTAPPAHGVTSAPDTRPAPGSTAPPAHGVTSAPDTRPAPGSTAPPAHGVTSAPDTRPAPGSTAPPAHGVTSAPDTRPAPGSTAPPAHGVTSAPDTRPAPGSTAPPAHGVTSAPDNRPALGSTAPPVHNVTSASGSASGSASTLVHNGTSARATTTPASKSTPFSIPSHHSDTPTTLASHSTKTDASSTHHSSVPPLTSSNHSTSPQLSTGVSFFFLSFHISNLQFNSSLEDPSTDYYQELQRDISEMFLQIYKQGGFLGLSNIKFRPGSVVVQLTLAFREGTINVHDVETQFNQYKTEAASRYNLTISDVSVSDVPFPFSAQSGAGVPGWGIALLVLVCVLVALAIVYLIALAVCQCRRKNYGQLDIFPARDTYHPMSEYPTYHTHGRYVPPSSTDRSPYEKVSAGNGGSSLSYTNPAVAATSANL", "experiment": "FACScan on untreated ZR-75-1 cells (PBS control 6.23)"}, "[2]": {"target": "MUC-1 on ZR-75-1 cells deglycosylated with 4 mM Phenyl-N-alpha-D-Glucosamide (unglycosylated MUC-1) (human) (UniProt P15941)", "sequence (P15941 24-1255, form in doubt)": "as the sequence (P15941 24-1255) above", "experiment": "FACScan on deglycosylated ZR-75-1 cells (PBS control 6.76)"}}}
{"substance": "SM3 (antibody)", "values": [{"measurement": "% positive cells", "setting": "[1]", "result": 7.49, "unit": "%"}, {"measurement": "% positive cells", "setting": "[2]", "result": 41.3, "unit": "%"}]}
